Assays:
Assay in all cases: BLI
[1] = biological target: Anti-mTfRC 8D3 (mouse)
[2] = biological target: TBTI_13C3x8D3 HC_N31A_mIgG1 (mouse)
[3] = biological target: TBTI_13C3x8D3 HC_S101A_mIgG1 (mouse)
[4] = biological target: TBTI_13C3x8D3 HC_T100A_mIgG1 (mouse)
[5] = biological target: TBTI_13C3x8D3 HC_Y52A_mIgG1 (mouse)
[6] = biological target: TBTI_13C3x8D3 HC_Y53A_mIgG1 (mouse)
[7] = biological target: TBTI_13C3x8D3 LC_G68I_mIgG1 (mouse)
[8] = biological target: TBTI_13C3x8D3 LC_N31A_mIgG1 (mouse)
[9] = biological target: TBTI_13C3x8D3 LC_N93A_mIgG1 (mouse)
[10] = biological target: TBTI_13C3x8D3 LC_Y49A_mIgG1 (mouse)
[11] = biological target: TBTI_13C3x8D3 LC_Y92A_mIgG1 (mouse)
[12] = biological target: TBTI_13C3x8D3_HC_N31A/LC_Y92A_mIgG1 (mouse)
[13] = biological target: TBTI_13C3x8D3_HC_S101A/LC_Y92A_mIgG1 (mouse)
[14] = biological target: TBTI_13C3x8D3_HC_Y52A-S101A/LC_Y49A-Y92A-mIgG1 (mouse)
[15] = biological target: TBTI_13C3x8D3_HC_Y52A/LC_Y49A_mIgG1 (mouse)
[16] = biological target: TBTI_13C3x8D3_HC_Y52A/LC_Y92A_mIgG1 (mouse)
[17] = biological target: TBTI_13C3x8D3_mIgG1 (mouse)
[18] = biological target: TBTI_8D3x13C3_mIgG1 (mouse)

A Kd [1] of 0.54 nM, a koff [1] of 3.9e-05 s⁻¹ and a kon [1] of 71300 M⁻¹ s⁻¹ were found for “mouse transferrin receptor protein (mTfR), Sino Biological 50741-M07H (from UniProt Q62351 89-763)” in this work. It also gave a Kd [2] of 6.61 nM, a koff [2] of 0.000159 s⁻¹ and a Kd [3] of 8.96 nM. It also gave a koff [3] of 0.000258 s⁻¹, a kon [3] of 28800 M⁻¹ s⁻¹ and a Kd [4] of 3.83 nM. For the same substance, the koff [4] was 0.000233 s⁻¹, the kon [4] was 60800 M⁻¹ s⁻¹ and the Kd [5] was 17.9 nM. The koff [5] was 0.000521 s⁻¹, the kon [5] was 29200 M⁻¹ s⁻¹ and the Kd [6] was 4.25 nM. For the same substance, the koff [6] was 0.000124 s⁻¹, the kon [6] was 29200 M⁻¹ s⁻¹ and the Kd [7] was 3.84 nM. It also gave a koff [7] of 0.000105 s⁻¹, a kon [7] of 27200 M⁻¹ s⁻¹ and a Kd [8] of 2.18 nM. It also gave a koff [8] of 5.4e-05 s⁻¹, a Kd [9] of 4.16 nM and a koff [9] of 0.000112 s⁻¹. It also gave a kon [9] of 27100 M⁻¹ s⁻¹, a Kd [10] of 4.46 nM and a koff [10] of 9.9e-05 s⁻¹. The kon [10] was 22100 M⁻¹ s⁻¹, the Kd [11] was 6.88 nM and the koff [11] was 0.000149 s⁻¹. The kon [11] was 21700 M⁻¹ s⁻¹, the koff [12] was 0.000553 s⁻¹ and the kon [12] was 62100 M⁻¹ s⁻¹. For the same substance, the Kd [13] was 6.94 nM, the koff [13] was 0.000357 s⁻¹ and the kon [13] was 51400 M⁻¹ s⁻¹. It also gave a Kd [14] of 19.6 nM, a koff [14] of 0.00111 s⁻¹ and a kon [14] of 32600 M⁻¹ s⁻¹. The koff [15] was 0.000689 s⁻¹, the kon [15] was 793000 M⁻¹ s⁻¹ and the Kd [16] was 29.2 nM. The koff [16] was 0.000734 s⁻¹, the kon [16] was 25200 M⁻¹ s⁻¹ and the Kd [17] was 2.83 nM. The koff [17] was 9.9e-05 s⁻¹, the kon [17] was 35300 M⁻¹ s⁻¹ and the Kd [18] was 0.4 nM. For the same substance, the koff [18] was 2.9e-05 s⁻¹ and the kon [18] was 74400 M⁻¹ s⁻¹.
